Experimental data from US20040191887A1 (WISCONSIN ALUMNI RESEARCH FOUNDATION, published 2004).

T1: botulinum neurotoxin E (Clostridium botulinum, UniProt Q00496 2-1251)
T1 sequence: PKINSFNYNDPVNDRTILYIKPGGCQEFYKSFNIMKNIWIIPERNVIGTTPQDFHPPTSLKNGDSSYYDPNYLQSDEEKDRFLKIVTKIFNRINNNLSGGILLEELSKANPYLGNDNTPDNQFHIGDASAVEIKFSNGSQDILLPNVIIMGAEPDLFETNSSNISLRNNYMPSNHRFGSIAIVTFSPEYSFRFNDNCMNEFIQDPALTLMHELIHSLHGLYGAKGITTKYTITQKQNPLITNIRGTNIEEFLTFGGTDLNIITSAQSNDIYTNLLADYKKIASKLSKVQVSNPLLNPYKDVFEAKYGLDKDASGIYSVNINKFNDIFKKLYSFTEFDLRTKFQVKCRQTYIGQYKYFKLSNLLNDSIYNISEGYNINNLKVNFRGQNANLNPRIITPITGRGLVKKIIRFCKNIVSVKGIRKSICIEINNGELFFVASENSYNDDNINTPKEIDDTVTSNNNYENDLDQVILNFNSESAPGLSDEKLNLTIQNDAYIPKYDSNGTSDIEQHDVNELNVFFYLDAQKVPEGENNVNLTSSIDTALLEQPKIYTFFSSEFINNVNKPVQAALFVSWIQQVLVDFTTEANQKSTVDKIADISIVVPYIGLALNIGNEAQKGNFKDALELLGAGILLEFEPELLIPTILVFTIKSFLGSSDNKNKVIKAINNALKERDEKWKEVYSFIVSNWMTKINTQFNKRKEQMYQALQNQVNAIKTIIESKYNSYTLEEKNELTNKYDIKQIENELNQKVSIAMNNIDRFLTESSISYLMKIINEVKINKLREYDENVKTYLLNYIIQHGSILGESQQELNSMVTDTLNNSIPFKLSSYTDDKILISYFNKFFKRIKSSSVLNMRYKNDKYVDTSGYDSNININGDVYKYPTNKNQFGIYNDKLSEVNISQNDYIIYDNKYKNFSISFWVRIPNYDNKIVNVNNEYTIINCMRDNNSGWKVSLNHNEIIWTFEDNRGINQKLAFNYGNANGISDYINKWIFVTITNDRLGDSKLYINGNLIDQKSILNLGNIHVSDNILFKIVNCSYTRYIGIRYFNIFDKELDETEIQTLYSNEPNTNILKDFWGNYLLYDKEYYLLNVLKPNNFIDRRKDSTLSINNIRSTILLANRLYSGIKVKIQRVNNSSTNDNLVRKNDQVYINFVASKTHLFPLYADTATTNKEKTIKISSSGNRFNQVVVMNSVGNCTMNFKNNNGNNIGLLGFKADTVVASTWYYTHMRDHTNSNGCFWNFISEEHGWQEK

B1: GST fusion of rat synaptotagmin I lacking the C2B domain (receptor)
chain: MVSASHPEALAAPVTTVATLVPHNATEPASPGEGKEDAFSKLKQKFMNELHKIPLPPWALIAIAIVAVLLVVTCCFCVCKKCLFKKKNKKKGKEKGGKNAINMKDVKDLGKTMKDQALKDDDAETGLTDGEEKEEPKEEEKLGKLQYSLDYDFQNNQLLVGIIQAAELPALDMGGTSDPYVKVFLLPEKKKKFETKVHRKTLNPVFNEQFTFKVPYSELGGKTLVMAVYDFDRFSKHDIIGEFKVPMNTVDFGHVTEEWRDLQSA
B2: GST fusion of mouse synaptotagmin II lacking the C2B domain (residues 1-267) (receptor)
chain: MRNIFKRNQEPNVAPATTTATMPLAPVAPADNSTESTGPGESQEDMFAKLKEKFFNEINKIPLPPWALIAMAVVAGLLLLTCCFCICKKCCCKKKKNKKEKGKGMKNAMNMKDMKGGQDDDDAETGLTEGEGEGEEEKEPENLGKLQFSLDYDFQANQLTVGVLQAAELPALDMGGTSDPYVKVFLLPDKKKKYETKVHRKTLNPAFNETFTFKVPYQELAGKTLVMAIYDFDRFSKHDIIGEVKVPMNTVDLGQPIEEWRDLQGGE
B3: GST fusion of rat synaptotagmin IV lacking the C2B domain (receptor)
chain: MAPITTSRVEFDEIPTVVGIFSAFGLVFTVSLFAWICCQRRSAKSNKTPPYKFVHVLKGVDIYPENLSSKKKFGGDDKSEAKRKAALPNLSLHLDLEKRDLNGNFPKTNPKAGSSSDLENVTPKLFPETEKEAVSPESLKSSTSLTSEEKQEKLGTLFLSLEYNFEKKAFVVNIKEAQGLPAMDEQSMTSDPYIKMTILPEKKHKVKTRVLRKTLDPVFDETFTFYGVPYPHIQELSLHFTVLSFDRFSRDDVIGEVLVPLSGIELSDGKMLMTREIIKR

Columns and labels:
botulinum neurotoxin E = target: T1, botulinum neurotoxin E; assay: GST pull-down with and without gangliosides, immunoblot
botulinum neurotoxin A = botulinum neurotoxin A (Clostridium botulinum, UniProt P0DPI0 2-1296); assay: as above
Sequence of botulinum neurotoxin A (P0DPI0 2-1296 limits assumed): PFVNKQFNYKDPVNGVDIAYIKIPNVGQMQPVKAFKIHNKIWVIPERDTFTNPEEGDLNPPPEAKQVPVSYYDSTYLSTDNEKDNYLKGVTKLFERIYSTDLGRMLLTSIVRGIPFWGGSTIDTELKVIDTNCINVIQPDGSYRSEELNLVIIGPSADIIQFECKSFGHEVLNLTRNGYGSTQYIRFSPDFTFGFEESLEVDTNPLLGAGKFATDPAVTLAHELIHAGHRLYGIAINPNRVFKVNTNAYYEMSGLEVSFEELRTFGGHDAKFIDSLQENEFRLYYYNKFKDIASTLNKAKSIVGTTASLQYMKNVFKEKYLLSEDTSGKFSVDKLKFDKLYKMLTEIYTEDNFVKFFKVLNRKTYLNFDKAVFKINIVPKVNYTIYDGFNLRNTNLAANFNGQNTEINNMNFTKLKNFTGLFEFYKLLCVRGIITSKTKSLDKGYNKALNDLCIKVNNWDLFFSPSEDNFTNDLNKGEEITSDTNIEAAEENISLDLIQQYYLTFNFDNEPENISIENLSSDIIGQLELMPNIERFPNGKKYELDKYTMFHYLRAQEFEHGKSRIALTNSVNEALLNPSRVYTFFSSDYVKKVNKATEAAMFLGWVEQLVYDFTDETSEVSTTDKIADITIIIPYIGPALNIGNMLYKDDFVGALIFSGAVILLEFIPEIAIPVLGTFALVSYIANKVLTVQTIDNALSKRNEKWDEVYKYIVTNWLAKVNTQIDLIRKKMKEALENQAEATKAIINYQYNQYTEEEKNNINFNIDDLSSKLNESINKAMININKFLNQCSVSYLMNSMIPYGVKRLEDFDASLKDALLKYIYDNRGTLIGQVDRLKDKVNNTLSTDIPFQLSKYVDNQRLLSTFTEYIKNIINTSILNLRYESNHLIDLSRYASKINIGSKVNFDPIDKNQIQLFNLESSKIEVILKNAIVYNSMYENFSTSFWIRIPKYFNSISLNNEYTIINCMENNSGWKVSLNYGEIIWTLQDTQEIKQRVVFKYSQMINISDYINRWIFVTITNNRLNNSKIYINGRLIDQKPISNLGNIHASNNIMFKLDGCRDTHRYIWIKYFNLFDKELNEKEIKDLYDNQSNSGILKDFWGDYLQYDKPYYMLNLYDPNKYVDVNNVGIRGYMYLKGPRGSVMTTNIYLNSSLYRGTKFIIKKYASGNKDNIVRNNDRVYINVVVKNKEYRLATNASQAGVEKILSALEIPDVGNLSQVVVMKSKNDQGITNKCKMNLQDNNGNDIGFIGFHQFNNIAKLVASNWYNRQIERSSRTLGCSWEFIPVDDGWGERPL

Row | Binder | binding result (botulinum neurotoxin E) | binding result (botulinum neurotoxin A)
1 | B1 | no binding (tested: 30 nM; also 300 nM (data not shown)) | no binding (tested: 30 nM; also 300 nM (data not shown))
2 | B2 | no binding (tested: 30 nM; also 300 nM (data not shown)) | no binding (tested: 30 nM; also 300 nM (data not shown))
3 | B3 | no binding (tested: 30 nM; also 300 nM (data not shown)) | no binding (tested: 30 nM; also 300 nM (data not shown))
